US20240343773A1
Ends that are not written are not given here.

B1: SEQ ID NO: 5 (ligand)
chain: FVDQHLCGSHLVEALYLVCGERGFFYTPKTYDGKGIVEQCCTSICSLYQLENYCG
modifications: ends and bridges not checked; cysteine pairing not given here
B2: SEQ ID NO: 7 (ligand)
chain: FVGQHLCGSHLVEALYLVCGERGFFYTPKTYDGKGIVEQCCTSICSLYQLENYCG
modifications: ends and bridges not checked; cysteine pairing not given here

Molecular target: IGF1 receptor (IGF1R) (UniProt P08069)
Assay: method not stated; in the absence of glucose

Row | Binder | Kd
1 | B1 | 30.4 nM
2 | B2 | 26.8 nM
